Assay: Buffer hydrolysis in phosphate buffer to monitor the release of des-ethyl sunitinib
Type: physicochemical
Conditions: 100 mM phosphate, 37° C.
Description: In a 10 mL round bottom flask was added (Z)—(N-(2-aminoethyl)-9-(hydroxymethyl)-9H-fluorene-2-carboxamide hydrochloride) ethyl(2-(5-((5-fluoro-2-oxoindolin-3-ylidene)methyl)-2,4-dimethyl-1H-pyrrole-3-carboxamido)ethyl)carbamate dihydrochloride (Compound 2a) (4.83 mg, 6.42 μmol). The solids were dissolved in anhydrous tetrahydrofuran (0.4 mL) and 1,4 dioxane (0.2 mL). mPEG-SPA 20K (100.4 mg, 5.02 μmol) was added. Anhydrous acetonitrile (0.2 mL) was added to dissolve the PEG. After the PEG dissolved, triethylamine (5.2 μL, 0.037 mmol) was added. At 1 hour, the reaction solvent was evaporated at reduced pressure to a dry solid. The product was redissolved in anhydrous acetonitrile (0.5 mL) and precipitated by slow addition of anhydrous IPA (8 mL total). The product was washed with anhydrous IPA (50 mL) and diethyl ether. Residual solvent was evaporated at reduced pressure. Yield was 75 mg yellow powder (75% yield). HPLC analysis was on C18 applying an acetonitrile gradient with 0.1% TFA; retention times were desethyl sunitinib (compound 1) 2.5 minutes and product at 10.7 minutes. Buffer hydrolysis was performed to monitor the release of des-ethyl sunitinib (100 mM phosphate, 37° C.): 36 days at pH 7.5, 3.6 days at pH 8.5.
In a 10 mL round bottom flask was added Compound 2b (9.6 mg, 0.013 mmol). The solids were suspended in anhydrous acetonitrile (0.37 mL) and 1,4 dioxane (0.37 mL). mPEG-SPA 20K (181.3 mg, 9.07 μmol) was added. After the PEG dissolved, triethylamine (9.24 μL, 0.066 mmol) was added. At one hour, the product was precipitated by slow addition of anhydrous IPA (10 mL). The solid was washed with anhydrous IPA (25-30 mL) and then washed with diethyl ether. Residual solvent was evaporated at reduced pressure. Yield was ˜120 mg yellow powder. The product was transferred to a 50 mL round bottom flask. More Compound 2b (6.9 mg, 9.18 μmol) was added. Anhydrous acetonitrile (0.25 mL) and anhydrous 1,4 dioxane (0.25 mL) and anhydrous pyridine (2.2 μL, 0.027 mmol) were added. The reagents never fully dissolved, therefore triethylamine (6 μL, 0.043 mmol) was added. The solution was a clear orange color. After 45 minutes, the product was precipitated by slow addition of anhydrous IPA (˜10 mL). The solid was washed with anhydrous IPA (˜25-30 mL) and then washed with diethyl ether. Residual solvent was evaporated at reduced pressure. Yield was ˜68 mg (57%) yellow powder. HPLC analysis was on C18 applying an acetonitrile gradient with 0.1% TFA; retention times were desethyl sunitinib (compound 1) 2.5 min and product at 10.7 min. Buffer hydrolysis was performed to monitor the release of des-ethyl sunitinib (100 mM phosphate, 37° C.): 22 days at pH 7.5, 1.4 days at pH 8.5.
Experiments were carried out to measure drug release from the polymer conjugates. A typical plot of the data showing the decay of the polymer conjugate (FIG. 1) and the build-up of drug with time (FIG. 2) are included.
In a 10 mL round bottom flask was Compound 2c (7.4 mg, 7.69 μmol) was suspended in anhydrous dioxane (0.5 mL) and anhydrous acetonitrile (0.5 mL). mPEG-SPA 20K (100.0 mg, 5.0 μmol) was added. After the PEG dissolved, triethylamine (7.2 μL, 0.052 mmol) was added. At thirty minutes, anhydrous acetonitrile (0.5 mL) and anhydrous methanol (0.3 mL) were added. At two hours total reaction time, the product was precipitated by slow addition of anhydrous IPA containing 0.25% phosphoric acid. The product was washed with anhydrous IPA and then washed with diethyl ether. Residual solvent was evaporated at reduced pressure. Yield: 58 mg (58%) yellow powder. HPLC analysis employed a C18 column using an acetonitrile gradient with 0.1% TFA; retention times were des-ethyl sunitinib 2.5 min and product 10.7 minutes with 41% purity at 320 nm. Buffer hydrolysis was done to monitor the release of desethyl sunitinib (100 mM phosphate, 37° C.): 11 d at pH 7.5, 1.7 d at pH 8.5.

| Substance | Buffer hydrolysis, release of des-ethyl sunitinib at pH 7.5 (pH 7.5) | Buffer hydrolysis, release of des-ethyl sunitinib at pH 8.5 (pH 8.5) | Buffer hydrolysis, release of desethyl sunitinib at pH 7.5 (pH 7.5) | Buffer hydrolysis, release of desethyl sunitinib at pH 8.5 (pH 8.5) |
| --- | --- | --- | --- | --- |
| (Z)-(9-(hydroxymethyl)-N-(2-β-(mPEG 20,000)propanamido)ethyl)-9H-fluorene-4-carboxamide) ethyl(2-(5-((5-fluoro-2-oxoindolin-3-ylidene)methyl)-2,4-dimethyl-1H-pyrrole-3-carboxamido)ethyl)carbamate [Compound 3b] | 22 days | 1.4 days | – | – |
| (Z)-(9-(hydroxymethyl)-N-(2-β-(mPEG 20,000)propanamido)ethyl)-9H-fluorene-2-carboxamide) ethyl(2-(5-((5-fluoro-2-oxoindolin-3-ylidene)methyl)-2,4-dimethyl-1H-pyrrole-3-carboxamido)ethyl)carbamate [Compound 3a] | 36 days | 3.6 days | – | – |
| (Z)-(9-(hydroxymethyl)-N2-(2-(2-(2-methoxyethoxy)ethoxy)ethyl)-N7-(2-β-(2-(mPEG 20,000))propanamido)ethyl)-9H-fluorene-2,7-dicarboxamide) ethyl(2-(5-((5-fluoro-2-oxoindolin-3-ylidene)methyl)-2,4-dimethyl-1H-pyrrole-3-carboxamido)ethyl)carbamate [Compound 3c] | – | – | 11 d | 1.7 d |
